Experimental findings from US20240101668A1 (WUGEN, published 2024) are described below.

One assay deals with T1, huCLL1-K244-Avi-Tev-His (human, UniProt Q5QGZ9 65-265).
T1 construct: extracellular domain
T1 sequence (looked up): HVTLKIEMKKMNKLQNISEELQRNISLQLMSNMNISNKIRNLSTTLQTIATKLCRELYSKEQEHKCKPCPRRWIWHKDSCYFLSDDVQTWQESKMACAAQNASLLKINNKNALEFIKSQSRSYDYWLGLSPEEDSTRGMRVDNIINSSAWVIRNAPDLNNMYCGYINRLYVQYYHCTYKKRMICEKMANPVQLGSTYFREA
Kind of assay: BLI.

Another assay addresses T2, huCLL1-Q244-Avi-Tev-His (human, UniProt Q5QGZ9 65-265).
T2 construct: extracellular domain; also called CLL-1 K244Q
T2 sequence (looked up): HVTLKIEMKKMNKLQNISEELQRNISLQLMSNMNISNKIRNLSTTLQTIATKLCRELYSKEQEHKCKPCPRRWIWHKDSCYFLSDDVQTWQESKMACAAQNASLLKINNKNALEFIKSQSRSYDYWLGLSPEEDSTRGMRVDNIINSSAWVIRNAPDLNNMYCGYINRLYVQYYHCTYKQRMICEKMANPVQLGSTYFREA
Kind of assay: BLI. Background: Biolayer interferometry detects binding as a change in optical thickness at a sensor tip.

B1: Polypeptide No. 174 (scFv, V domains shown)
VH: EVQLLESGGGLVQPGGSLRLSCAASGFIFRDHWMHWVRQAPGKGLEWVSSIDFSTGYIYYADSVKGRFTISRDNSKNTLYLQMNSLRAEDTAVYYCARDPWGDGDFDYWGRGTLVTVSS
VL: DIQMTQSPSSLSASVGDRVTITCRASQSISSWLAWYQQKPGKAPKLLIYAASSLQSGVPSRFSGSGSGTDFTLTISSLQPEDFATYYCQQTYTTPYTFGQGTRLEIKR
notes: scFv
For the molecule B1, the binding result with huCLL1-K244-Avi-Tev-His and with huCLL1-Q244-Avi-Tev-His was “binds” in each case.

B2: Polypeptide No. 172 (scFv, V domains shown)
VH: QVQLVQSGAEVKKPGASVKVSCKASGYTFSDYYVHWVRQAPGQGLEWMGWMNPNSGNTGYAQKFQGRVTMTRDTSTSTVYMELSSLRSEDTAVYYCARGLTGDQFDYWGQGTLVTVSS
VL: not shown
notes: scFv
As to B2, the binding result in the assay with huCLL1-K244-Avi-Tev-His and in the assay with huCLL1-Q244-Avi-Tev-His was “binds” throughout.

B3: Polypeptide No. 176 (scFv, V domains shown)
VH: QVQLVQSGAEVKKPGASVKVSCKASGGSFTSYYIHWVRQAPGQGLEWVGWMNPNSGNTGYAQKFQGRVTMTRDTSTSTVYMELSSLRSEDTAVYYCARGATDDAFDIWGQGTMVTVSS
VL: DIQMTQSPSSLSASVGDRVTITCRASQNIDTWLAWYQQKPGKAPKLLIYDGSNLEAGVPSRFSGSGSGTDFTLTISSLQPEDFATYYCQQSYNTPITFGQGTRLEIKR
notes: scFv
Consider B3, for which the binding result in the assay with huCLL1-K244-Avi-Tev-His and with huCLL1-Q244-Avi-Tev-His was “binds” throughout.

B4: Polypeptide No. 165 (scFv, V domains shown)
VH: QVQLVQSGAEVKKPGASVKVSCKASGYTFTSYDINWVRQAPGQGLEWMGWMNPNSGNTGYAQKFQGRVTMTRDTSTSTVYMELSSLRSEDTAVYYCARLSSGYYPDYWGQGTLVTVSS
VL: DIQMTQSPSSLSASVGDRVTITCRASQFIANWLAWYQQKPGKAPKLLIYDASSLESGVPSRFSGSGSGTDFTLTISSLQPEDFATYYCQQSYSTPLTFGGGTKVEIKR
notes: scFv
As to B4, the binding result with huCLL1-K244-Avi-Tev-His and with huCLL1-Q244-Avi-Tev-His was “binds” each time.

B5: Polypeptide No. 171 (scFv, V domains shown)
VH: QVQLVQSGAEVKKPGASVKVSCKASGYTFTDYYIHWVRQAPGQGLEWMGMVDPNTGNINYAQTFQGRVTMTRDTSTSTVYMELSSLRSEDTAVYYCTSGSTNDAFDIWGQGTMVTVSS
VL: DIQMTQSPSSLSASVGDRVTITCRASQSIGPWLAWYQQKPGKAPKLLIYEASNLASGVPSRFSGSGSGTDFTLTISSLQPEDFATYYCQQSYSTPLTFGGGTKVEIKR
notes: scFv
With B5, the binding result with huCLL1-K244-Avi-Tev-His and in the assay with huCLL1-Q244-Avi-Tev-His was “binds” each time.

B6: Polypeptide No. 179 (scFv, V domains shown)
VH: QVQLVQSGAEVKKPGASVKVSCKASGGTFSSYAISWVRQAPGQGLEWMGTINPSGGSTNYAQKFQGRVTMTRDTSTSTVYMELSSLRSEDTAVYYCAIGGYDSPYMDVWGKGTTVTVSS
VL: DIQMTQSPSSLSASVGDRVTITCQASQDISNYLNWYQQKPGKAPKLLIYDASNLETGVPSRFSGSGSGTDFTLTISSLQPEDFATYYCQQGYSPPWTFGGGTKVEIKR
notes: scFv
As to B6, the binding result with huCLL1-K244-Avi-Tev-His and with huCLL1-Q244-Avi-Tev-His was “binds” each time.

B7: Polypeptide No. 180 (scFv, V domains shown)
VH: QVQLVQSGAEVKKPGASVKVSCKASGYTFTSLDINWVRQAPGQGLEWMGSMNPRSGSTAYAQSFQGRVTMTRDTSTSTVYMELSSLRSEDTAVYYCAKSDYGDYLDYWGQGTLVTVSS
VL: DIQMTQSPSSLSASVGDRVTITCRASQSISPWLAWYQQKPGKAPKLLIYDASNLQSGVPSRFSGSGSGTDFTLTISSLQPEDFATYYCQQSYSTPLTFGQGTKLEIKR
notes: scFv
Consider B7, for which the binding result with huCLL1-K244-Avi-Tev-His and with huCLL1-Q244-Avi-Tev-His was “binds” throughout.

B8: Polypeptide No. 183 (scFv, V domains shown)
VH: QVQLVQSGAEVKKPGSSVKVSCKASGGTFSSYAISWVRQAPGQGLEWMGGIIPKFGPPNYAPKFQGRVTITADESTSTAYMELSSLRSEDTAVYYCARNSYGDDFDYWGQGTLVTVSS
VL: DIQMTQSPSSLSASVGDRVTITCRASQSISSWLAWYQQKPGKAPKLLIYAASSLQRGVPSRFSGSGSGTDFTLTISSLQPEDFATYYCQQSYSTPLTFGQGTKVEIKR
notes: scFv
As to B8, the binding result in the assay with huCLL1-K244-Avi-Tev-His and with huCLL1-Q244-Avi-Tev-His was “binds” each time.

B9: Polypeptide No. 166 (scFv, V domains shown)
VH: QVQLVQSGAEVKKPGASVKVSCKASGYTFESYDMNWVRQAPGQGLEWMGWIDPHSGDTNFAQKFQGRVTMTRDTSTSTVYMELSSLRSEDTAVYYCARADYGGNADYWGQGTLVTVSS
VL: DIQMTQSPSSLSASVGDRVTITCRASQGISNWLAWYQQKPGKAPKLLIYDASNLETGVPSRFSGSGSGTDFTLTISSLQPEDFATYYCQQSYSTPYTFGQGTKVEIKR
notes: scFv
As to B9, the binding result with huCLL1-K244-Avi-Tev-His and with huCLL1-Q244-Avi-Tev-His was “binds” in each case.

B10: Polypeptide No. 168 (scFv, V domains shown)
VH: QVQLVQSGAEVKKPGASVKVSCKASGYTFTNYGISWVRQAPGQGLEWMGWINPNSGGTNYAQKFQGRVTMTRDTSTSTVYMELSSLRSEDTAVYYCARVRSDDFFDYWGQGTLVTVSS
VL: DIQMTQSPSSLSASVGDRVTITCRASQSVNHWLAWYQQKPGKAPKLLIYAASTLQSGVPSRFSGSGSGTDFTLTISSLQPEDFATYYCQQSYSLPLTFGGGTKVEIKR
notes: scFv
Take B10: the binding result with huCLL1-K244-Avi-Tev-His and with huCLL1-Q244-Avi-Tev-His was “binds” each time.

B11: Polypeptide No. 173 (scFv, V domains shown)
VH: QVQLVQSGAEVKKPGASVKVSCKASGYTFNGYNMHWVRQAPGQGLEWMGWINPNSGDTNYAQKFQGRVTMTRDTSTSTVYMELSSLRSEDTAVYYCASLDYGDYAVYWGQGTLVTVSS
VL: DIQMTQSPSSLSASVGDRVTITCRASQSISTWLAWYQQKPGKAPKLLIYDASSLRSGVPSRFSGSGSGTDFTLTISSLQPEDFATYYCQQSYSTPITFGQGTKVEIKR
notes: scFv
In the case of B11, the binding result with huCLL1-K244-Avi-Tev-His and with huCLL1-Q244-Avi-Tev-His was “binds” each time.

B12: Polypeptide No. 167 (scFv, V domains shown)
VH: QVQLVQSGAEVKKPGASVKVSCKASGYTFTSYYMHWVRQAPGQGLEWMGWINPNSGGTNYAQKFQGRVTMTRDTSTSTVYMELSSLRSEDTAVYYCARGTTGDDFDYWGQGTLVTVSS
VL: DIQMTQSPSSLSASVGDRVTITCRASQDISTWLAWYQQKPGKAPKLLIYAASSLQSGVPSRFSGSGSGTDFTLTISSLQPEDFATYYCQQSYSIPPTFGPGTKVDIKR
notes: scFv
Take B12: the binding result with huCLL1-K244-Avi-Tev-His and with huCLL1-Q244-Avi-Tev-His was “binds” throughout.

B13: Polypeptide No. 181 (scFv, V domains shown)
VH: QVQLVQSGAEVKKPGASVKVSCKASGYTFTGYYMHWVRQAPGQGLEWMGVINPSGGSTSYAQKFQGRVTMTRDTSTSTVYMELSSLRSEDTAVYYCARGRTDDAFDIWGQGTLVTVSS
VL: DIQMTQSPSSLSASVGDRVTITCRASQTISSWLAWYQQKPGKAPKLLIYAASTLQSGVPSRFSGSGSGTDFTLTISSLQPEDFATYYCQQSYSIPLTFGGGTKLEIKR
notes: scFv
Consider B13, for which the binding result with huCLL1-K244-Avi-Tev-His and in the assay with huCLL1-Q244-Avi-Tev-His was “binds” throughout.

B14: Polypeptide No. 170 (scFv, V domains shown)
VH: QVQLVQSGAEVKKPGASVKVSCKASGGSFSNHGVSWVRQAPGQGLEWMGWMNPNSGDTGYAQKFQGRVTMTRDTSTSTVYMELSSLRSEDTAVYYCARPRKDDAFAIWGQGTLVTVSS
VL: DIQMTQSPSSLSASVGDRVTITCRASQSISSWLAWYQQKPGKAPKLLIYEASTLQSGVPSRFSGSGSGTDFTLTISSLQPEDFATYYCQQSYSTPLTFGQGTKVEIKR
notes: scFv
As for B14, the binding result with huCLL1-K244-Avi-Tev-His and with huCLL1-Q244-Avi-Tev-His was “binds” in each case.

B15: Polypeptide No. 182 (scFv, V domains shown)
VH: QVQLVQSGAEVKKPGASVKVSCKASGYTFTDYYMHWVRQAPGQGLEWLGIINTGAGTTNYAPKFQGRVTMTRDTSTSTVYMELSSLRSEDTAVYYCARGLTSDHFDYWGQGTLVTVSS
VL: DIQMTQSPSSLSASVGDRVTITCRASQNIGPWLAWYQQKPGKAPKLLIYEAFTLQSGVPSRFSGSGSGTDFTLTISSLQPEDFATYYCQQSDNIPITFGQGTKVEIKR
notes: scFv
Turning to B15, the binding result with huCLL1-K244-Avi-Tev-His and with huCLL1-Q244-Avi-Tev-His was “binds” throughout.

B16: Polypeptide No. 169 (scFv, V domains shown)
VH: QVQLVQSGAEVKKPGASVKVSCKASGYTFTNDYIHWVRQAPGQGLEWMGWMSPNSGKTGFAQKFQGRVTMTRDTSTSTVYMELSSLRSEDTAVYYCAKDNSSGWYFDLWGRGTLVTVSS
VL: DIQMTQSPSSLSASVGDRVTITCRVSQGISSYLAWYQQKPGKAPKLLIYDASNLETGVPSRFSGSGSGTDFTLTISSLQPEDFATYYCQQYDTLPITFGQGTRLEIKR
notes: scFv
In the case of B16, the binding result with huCLL1-K244-Avi-Tev-His and with huCLL1-Q244-Avi-Tev-His was “binds” each time.

B17: Polypeptide No. 178 (scFv, V domains shown)
VH: EVQLLESGGGLVQPGGSLRLSCAASGFTFSSSDMSWVRQAPGKGLEWVSSITGSGDGTYYADSVKGRFTISRDNSKNTLYLQMNSLRAEDTAVYYCIRDWEGIYQWGQGTLVTVSS
VL: DIQMTQSPSSLSASVGDRVTITCRVSQGISSYLNWYQQKPGKAPKLLIYDASNLETGVPSRFSGSGSGTDFTLTISSLQPEDFATYYCQQGYSTPWTFGQGTKLEIKR
notes: scFv
For B17, the binding result in the assay with huCLL1-K244-Avi-Tev-His and in the assay with huCLL1-Q244-Avi-Tev-His was “binds” throughout.

B18: Polypeptide No. 175 (scFv, V domains shown)
VH: QVQLVQSGAEVKKPGASVKVSCKASGYTFTSYDIHWVRQAPGQGLEWMGWINPNSGNTGYAQKFQGRVTMTRDTSTSTVYMELSSLRSEDTAVYYCAGGPDVDAAMVLDYWGQGTLVTVSS
VL: DIQMTQSPSSLSASVGDRVTITCQASQDISNYLNWYQQKPGKAPKLLIYDASNLETGVPSRFSGSGSGTDFTLTISSLQPEDFATYYCQQADGFPPTFGGGTKVEIKR
notes: scFv
Turning to B18, the binding result with huCLL1-K244-Avi-Tev-His and with huCLL1-Q244-Avi-Tev-His was “binds” throughout.
